Results from doi:10.1101/354985.

T1: POT1a;TPP1 (mouse;mouse?, UniProt Q91WC1;Q5EE38 1-640;1-416, |)
T1 sequence 1: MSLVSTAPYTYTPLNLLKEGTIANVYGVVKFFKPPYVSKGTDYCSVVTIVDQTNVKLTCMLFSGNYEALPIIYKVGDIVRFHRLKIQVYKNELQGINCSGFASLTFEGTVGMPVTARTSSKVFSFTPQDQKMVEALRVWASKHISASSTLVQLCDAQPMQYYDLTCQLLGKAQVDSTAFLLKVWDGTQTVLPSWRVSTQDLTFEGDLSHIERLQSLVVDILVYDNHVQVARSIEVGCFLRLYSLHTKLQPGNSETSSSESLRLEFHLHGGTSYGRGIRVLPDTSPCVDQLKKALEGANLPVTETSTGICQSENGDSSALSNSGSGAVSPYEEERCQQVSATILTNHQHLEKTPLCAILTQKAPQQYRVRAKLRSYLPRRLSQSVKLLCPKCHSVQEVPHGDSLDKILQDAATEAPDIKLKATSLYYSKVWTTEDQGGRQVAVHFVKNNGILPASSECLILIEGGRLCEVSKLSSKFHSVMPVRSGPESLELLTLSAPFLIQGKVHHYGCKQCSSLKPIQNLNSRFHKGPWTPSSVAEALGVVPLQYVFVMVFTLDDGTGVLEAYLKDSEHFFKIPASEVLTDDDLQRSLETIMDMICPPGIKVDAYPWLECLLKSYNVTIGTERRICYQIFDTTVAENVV
T1 sequence 2: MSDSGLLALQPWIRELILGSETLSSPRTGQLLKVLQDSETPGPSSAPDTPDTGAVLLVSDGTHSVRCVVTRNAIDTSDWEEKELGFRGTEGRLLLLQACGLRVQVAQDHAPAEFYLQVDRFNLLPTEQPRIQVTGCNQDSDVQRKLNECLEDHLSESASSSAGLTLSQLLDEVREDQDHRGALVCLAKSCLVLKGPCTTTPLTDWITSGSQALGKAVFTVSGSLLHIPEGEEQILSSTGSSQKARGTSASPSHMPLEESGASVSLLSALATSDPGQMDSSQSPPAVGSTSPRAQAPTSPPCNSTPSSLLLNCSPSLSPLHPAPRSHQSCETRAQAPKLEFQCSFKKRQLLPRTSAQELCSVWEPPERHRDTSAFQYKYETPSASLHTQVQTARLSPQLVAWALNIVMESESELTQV

B1: Telo34 (ssDNA)
DNA: TTAGGGTTAGGGTTAGGGTTAGGGTTAGGGTTAG
B2: Scr35 (ssDNA)
DNA: ATGCGACTCGAGCTAGATGATGTCTTCTGCAATCA

Legend:
Experiment in all cases: EMSA
POT1a;TPP1 [1] = biological target: T1, POT1a;TPP1
Δ70-POT1aC;TPP1 [2] = biological target: T2, Δ70-POT1aC;TPP1 (mouse? (POT1a part); RPA70 organism not …, UniProt Q8VEE4;Q5EE38 191-623+Q91WC1:149-640;1-416, internal_change|)
POT1a;TPP1 [3] = biological target: T1, POT1a;TPP1; remark: listed apart in the source
Δ70-POT1aC;TPP1 [4] = biological target: T2, Δ70-POT1aC;TPP1; remark: listed apart in the source

| Binder | Kd (POT1a;TPP1 [1]) [nM] | Kd (Δ70-POT1aC;TPP1 [2]) [nM] | binding result (POT1a;TPP1 [3]) | binding result (Δ70-POT1aC;TPP1 [4]) |
| --- | --- | --- | --- | --- |
| B1 | ~0.5 | ~0.5 | – | – |
| B2 | – | – | no binding | binds |
